In publication PMC6446838, “MAP7 family proteins regulate kinesin-1 recruitment and activation” (The Journal of Cell Biology, 2019):

B1: K560-GFP with C-terminal Strep-tag, purified (domain or fragment, human, UniProt P33176 1-560, looked up)
chain: MADLAECNIKVMCRFRPLNESEVNRGDKYIAKFQGEDTVVIASKPYAFDRVFQSSTSQEQVYNDCAKKIVKDVLEGYNGTIFAYGQTSSGKTHTMEGKLHDPEGMGIIPRIVQDIFNYIYSMDENLEFHIKVSYFEIYLDKIRDLLDVSKTNLSVHEDKNRVPYVKGCTERFVCSPDEVMDTIDEGKSNRHVAVTNMNEHSSRSHSIFLINVKQENTQTEQKLSGKLYLVDLAGSEKVSKTGAEGAVLDEAKNINKSLSALGNVISALAEGSTYVPYRDSKMTRILQDSLGGNCRTTIVICCSPSSYNESETKSTLLFGQRAKTIKNTVCVNVELTAEQWKKKYEKEKEKNKILRNTIQWLENELNRWRNGETVPIDEQFDKEKANLEAFTVDKDITLTNDKPATAIGVIGNFTDAERRKCEEEIAKLYKQLDDKDEEINQQSQLVEKLKTQMLDQEELLASTRRDQDNMQAELNRLQAENDASKEEVKEVLQALEELAVNYDQKSQEVEDKTKEYELLSDELNQKSATLASIDAELQKLKEMTNHQKKRAAEMMASLLK
notes: kinesin-1 heavy chain KIF5B, human, residues 1-560; pTT5 vector; also called KIF5B-560; source: HEK293T, transfected, purified (Strep(II)-streptactin, high-salt wash); not shown: GFP, C-terminal, kept

Tests used:
[1] = molecular target: the molecule itself; experiment: single-molecule fluorescence intensity analysis (TIRF); intensity of GFP-tagged kinesins moving on MTs compared with monomeric GFP, with or without MAP7 proteins; 30°C
[2] = molecular target: B1; experiment: cell-based or functional assay
[3] = molecular target: T1, full-length KIF5B-GFP with C-terminal Strep-tag (human, UniProt P33176 1-963); experiment: cell-based or functional assay
T1 sequence (looked up): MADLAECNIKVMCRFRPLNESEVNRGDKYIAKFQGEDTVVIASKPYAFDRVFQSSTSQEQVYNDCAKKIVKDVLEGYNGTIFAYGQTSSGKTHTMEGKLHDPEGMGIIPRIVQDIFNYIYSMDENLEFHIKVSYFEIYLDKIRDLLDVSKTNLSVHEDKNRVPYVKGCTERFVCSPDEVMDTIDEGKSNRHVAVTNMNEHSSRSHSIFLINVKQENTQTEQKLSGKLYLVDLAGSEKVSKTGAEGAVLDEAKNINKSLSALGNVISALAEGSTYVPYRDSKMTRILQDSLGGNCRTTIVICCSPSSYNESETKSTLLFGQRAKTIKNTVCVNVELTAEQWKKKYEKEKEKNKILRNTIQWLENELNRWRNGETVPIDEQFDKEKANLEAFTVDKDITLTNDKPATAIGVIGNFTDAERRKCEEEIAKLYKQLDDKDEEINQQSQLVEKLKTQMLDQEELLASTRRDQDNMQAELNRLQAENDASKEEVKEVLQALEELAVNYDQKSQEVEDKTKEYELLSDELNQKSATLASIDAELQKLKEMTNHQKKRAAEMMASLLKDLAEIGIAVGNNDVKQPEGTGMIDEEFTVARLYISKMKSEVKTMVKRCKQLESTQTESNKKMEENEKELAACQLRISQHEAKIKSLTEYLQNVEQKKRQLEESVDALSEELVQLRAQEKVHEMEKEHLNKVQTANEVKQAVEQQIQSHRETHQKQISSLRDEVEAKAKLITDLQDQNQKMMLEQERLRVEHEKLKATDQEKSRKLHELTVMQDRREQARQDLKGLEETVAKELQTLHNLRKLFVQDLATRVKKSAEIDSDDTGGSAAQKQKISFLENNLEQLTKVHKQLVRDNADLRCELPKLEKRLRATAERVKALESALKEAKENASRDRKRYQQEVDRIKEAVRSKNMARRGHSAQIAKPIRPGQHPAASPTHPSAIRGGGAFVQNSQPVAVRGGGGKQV

[4] = molecular target: the molecule itself; experiment: SEC-MALS; Superdex 200 10/300, 10 mM Tris HCl pH 7.5, 150 mM NaCl, 20°C; 30 µl of protein at 5 mg/ml injected

B1 was tested, and the “stoichiometry N” value [1] was 2.

B2: K370-GFP with C-terminal Strep-tag, purified (domain or fragment)
chain: not shown
notes: kinesin-1 heavy chain KIF5B, human, residues 1-370; pEGFP-N1 vector; also called KIF5B 1–370; source: HEK293T, transfected, purified (Strep(II)-streptactin); not shown: GFP, C-terminal, kept
B2 was tested, and the “stoichiometry N” value [1] was 2.

B3: Alexa Fluor 647–labeled SNAP-tag-MAP7D3, full length (natural protein, UniProt Q8IWC1 1-876, looked up)
chain: MMADGAAAGAGGSPSLRELRARMVAAANEIAKERRKQDVVNRVATHSSNIRSTFKPVIDGSMLKNDIKQRLARERREEKRRQQDANKETQLLEKERKTKLQYEKQMEERQRKLKERKEKEEQRRIAAEEKRHQKDEAQKEKFTAILYRTLERRRLADDYQQKRWSWGGSAMANSESKTANKRSASTEKLEQGTSALIRQMPLSSAGLQNSVAKRKTDKERSSSLNRRDSNLHSSTDKEQAERKPRVTGVTNYVMQYVTVPLRKCTSDELRAVMFPMSTMKIPPQTKVEESPLEKVETPPKASVDAPPQVNVEVFCNTSMEASPKAGVGMAPEVSTDSFPVVSVDVSPVVSTYDSEMSMDASPELSIEALPKVDLETVPKVSIVASPEASLEAPPEVSLEALPEVSVEAAPEGSLEAPPKGSAEVAPKESVKGSPKESMEASPEAMVKASPKTSLEASMEASPKAKARDAPKKSEMDKQALIPIAKKRLSSYTECYKWSSSPENACGLPSPISTNRQIQKNCPPSPLPLISKQSPQTSFPYKIMPIQHTLSVQSASSTVKKKKETVSKTTNRCEALSQRHMIYEESGNKSTAGIMNAEAATKILTELRRLAREQREKEEEERQREEMQQRVIKKSKDMAKEAVGGQAEDHLKLKDGQQQNETKKKKGWLDQEDQEAPLQKGDAKIKAQEEADKRKKEHERIMLQNLQERLERKKRIEEIMKRTRKTDVNASKVTETSSHDIYEEAEADNEESDKDSLNEMFPSAILNGTGSPTKFKMPFNNAKKMTHKLVFLEDGTSQVRKEPKTYFNGDLKNFRQKSMKDTSIQEVVSRPSSKRMTSHTTKTRKADETNTTSRSSAQTKSEGFHDILPKSSDTFRQ
modifications: Alexa Fluor 647 on the SNAP-tag
B3 was tested, and the “landing frequency of K560-GFP on MAP-decorated dynamic MTs in vitro, increasing MAP concentrations, against K560 alone” value [2] was ≤ 23.6 fold, the “processivity (run length) of K560-GFP on dynamic MTs in vitro” value [2] was 2 fold and the “events of full-length KIF5B-GFP on dynamic MTs in vitro (short binding events and landing followed by processive movement), with MAP against kinesin alone” value [3] was ≥ 60 fold. The “run length of full-length KIF5B-GFP on dynamic MTs in vitro, with MAP against kinesin alone” value [3] was ~1.6 fold.

B4: KIF5B fragment (minimal binding construct for SEC-MALS and ITC) (domain or fragment)
chain: CEEEIAKLYKQLDDKDEEINQQSQLVEKLKTQMLDQEELLASTRRDQDNMQAELNRLQAENDASKEEVKEVLQALEELAVNYDQKSQEVEDKTKEYELLSDEL
For B4, the “stoichiometry N” value [4] was 2.
